Test results reported in patent US20140271660A1 (Bayer, published 2014).

Target: T1, human antithrombin β complexed with heparin (ATβH) (human, UniProt P01008 33-464, lacks glycosylation at Asn135 (β glyco-isoform); complexed with heparin; biotinylated on surface lysines for panning and ELISA)
T1 construct: mature; heparin is not a protein; also called human ATβH; hATβH
Experiment: panning and screening of a human antibody library against human ATβ in complex with heparin
Description: A four-arm panning strategy was designed to discover Fabs specifically against ATβH from a human Fab library (Dyax Fab310). The library was first depleted with biotinylated heparin/Fondaparinux-bound ATα and biotinylated ATα and then was panned against heparin/Fondaparinux-bound ATβ and biotinylated ATβ on streptavidin beads, respectively. For each round of panning, the heparin-bound ATα (ATαH) was included in the binding buffer as a competitor. To keep hATβ in active conformation (heparin bound form), heparin was added to the wash buffer in all three rounds of panning. After panning, pooled clones were screened for hATβ and hATβH specific binding and counter-screened for hATα by ELISA. These clones were also examined for differential binding to rabbit ATβ over rabbit ATα. […] Positive hits (Fabs) were reformatted into IgG1, expressed in HEK293 cells and purified by protein-A column. These purified IgG1s were extensively tested in AT-depleted human plasma and hemA patient plasma for TGA assay (Thrombin Generation Assay) and dPT (diluted Prothrombin Time) assay to measure the clotting time.

T1 sequence (P01008 33-464, one chain of several): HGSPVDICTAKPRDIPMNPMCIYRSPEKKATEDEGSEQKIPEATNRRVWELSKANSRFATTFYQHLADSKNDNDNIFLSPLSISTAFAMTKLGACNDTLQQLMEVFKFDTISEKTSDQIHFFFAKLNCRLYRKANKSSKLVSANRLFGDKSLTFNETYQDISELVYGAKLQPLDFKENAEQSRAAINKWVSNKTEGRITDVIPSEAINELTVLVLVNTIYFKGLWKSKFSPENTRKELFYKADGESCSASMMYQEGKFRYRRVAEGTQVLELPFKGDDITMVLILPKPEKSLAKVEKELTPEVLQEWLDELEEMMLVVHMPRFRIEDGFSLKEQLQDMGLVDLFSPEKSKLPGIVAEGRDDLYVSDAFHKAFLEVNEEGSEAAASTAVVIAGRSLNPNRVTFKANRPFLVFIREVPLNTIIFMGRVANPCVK

binding result: binds
B1: TPP2009 hIgG1 (antibody, V domains shown)
VH: EVQLLESGGGLVQPGGSLRLSCAASGFTFSAYRMGWVRQAPGKGLEWVSRIYSSGGRTRYADSVKGRFTISRDNSKNTLYLQMNSLRAEDTAVYYCAREKASDLSGSFSEALDYWGQGTLVTVSS
VL: AQSVLTQDPAVSVALGQTVRITCQGDSLRSYYASWYQQKPGQAPVLVIYGKNNRPSGIPDRFSGSSSGNTASLTITGAQAEDEADYYCNSRDSSGNHLVFGGGTKLTVLG
